The values below come from publication PMC11358308, “Structure-based humanization of a therapeutic antibody for multiple myeloma” (Journal of Molecular Medicine (Berlin, Germany), 2024).

The term Kd denotes the concentration at which binding is half-saturated. Lower therefore signals a tighter complex.

What all share (conditions): both partners purified
The target of one assay is T1, cynomolgus BCMA (Macaca fascicularis, UniProt A0A2K5UD97).
T1 construct: B-cell maturation antigen (BCMA), cynomolgus monkey (macaque); differs from human BCMA at three positions: alanine 20 is aspartic acid, isoleucine 22 is lysine, asparagine 31 of hBCMA is deleted; also called cynoBCMA; cBCMA
The assay can be described thus: SPR; ProteOn XPR36; whole IgG (15 µg/ml) immobilised on GLH chip by amine chemistry; BCMA as mobile phase in PBS with 0.005% Tween-20 (0.4-90 nM hBCMA, 2.7 nM-1 µM cBCMA); Kd from kon and koff, single-site model. (In general: In SPR one partner is held on a chip, and binding of the other changes the refractive index at the surface.)

For assay [1], the target named is T2, human B-cell maturation antigen (BCMA), extracellular domain (Homo sapiens (Human)., UniProt Q02223).
T2 construct: B-cell maturation antigen (BCMA), human; soluble form used as mobile phase in SPR and in the Fab:BCMA crystals; holds the DxL loop (L17) and H19; also called hBCMA; human BCMA
T2 sequence (Q02223 1-54): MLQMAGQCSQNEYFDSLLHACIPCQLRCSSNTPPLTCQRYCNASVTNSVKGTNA
The description is as above.

Assay [2] concerns the target T2, human B-cell maturation antigen (BCMA), …. Nature of the assay: crystal structure; Fab:BCMA complexes; 21% PEG 3350, 0.1 M BisTris pH 6.5, 5 mM CuCl2, 20 °C; molecular replacement.

B1: J22.9-xi, chimaeric mouse/human IgG (antibody, V domains shown)
VH: QVQLQQSGGGLVQPGGSLKLSCAASGIDFSRYWMSWVRRAPGKGLEWIGEINPDSSTINYAPSLKDKFIISRDNAKNTLYLQMSKVRSEDTALYYCASLYYDYGDAMDYWGQGTSVTVSS
VL: DIVMTQSQRFMTTSVGDRVSVTCKASQSVDSNVAWYQQKPRQSPKALIFSASLRFSGVPARFTGSGSGTDFTLTISNLQSEDLAEYFCQQYNNYPLTFGAGTKLELK
notes: mouse VH of J22.9 (mVH); mouse VL of J22.9 (mVL); Fab light chain in PDB 4ZFO; IgG1; whole IgG immobilised in SPR
For B1, the binding result with cynomolgus BCMA is listed as “binds”. This molecule also showed a Kd in assay [1] of 0.28 nM.

B2: J22.9-H, humanized IgG (all humanizing substitutions in VH and VL except A46L in VL) (antibody, V domains shown)
VH: EVQLVESGGGLVQPGGSLRLSCAASGFTFSRYWMSWVRQAPGKGLVWVGEINPDSSTINYAPSLKDKFTISRDNAKNTLYLQMNSLRAEDTAVYYCASLYYDYGDAMDYWGQGTLVTVSS
VL: EIVMTQSPATLSVSPGERATLSCKASQSVDSNVAWYQQKPGQAPRALIYSASLRFSGIPARFSGSGSGTEFTLTISSLQSEDFAVYYCQQYNNYPLTFGAGTKLELK
notes: humanized VH (hVH, 16 changes against the mouse VH); human IgG1 heavy chain constant region, as told for J22.9-xi; Fab light chain in PDB 8QY9; whole IgG in SPR and FACS; source: expressed, purified
As for B2, the binding result with cynomolgus BCMA is “binds”. In addition, in assay [1], the Kd amounted to 15 nM.

B3: J22.9-FSY, humanized and CDR-optimized IgG (antibody, V domains shown)
VH: EVQLVESGGGLVQPGGSLRLSCAASGFTFSRYWFSWVRQAPGKGLVWVGEINPSSSTINYAPSLKDKFTISRDNAKNTLYLQMNSLRAEDTAVYYCASLYYDYGDAYDYWGQGTLVTVSS
VL: EIVMTQSPATLSVSPGERATLSCKASQSVESNVAWYQQKPGQAPRALIYSASLRFSGIPARFSGSGSGTEFTLTISSLQSEDFAVYYCQQYNNYPLTFGAGTKLELK
notes: as the VH of m5 (J22.9-H); human IgG1 heavy chain constant region, as told for J22.9-xi; as the light chain of m5 (J22.9-H; no structure of this variant; source: expressed, purified)
As for B3, the binding result (with cynomolgus BCMA; in assay [1]) was “binds” each time.

B4: J22.9-ISY Fab fragment (Fab, V domains shown)
VH: EVQLVESGGGLVQPGGSLRLSCAASGFTFSRYWISWVRQAPGKGLVWVGEINPSSSTINYAPSLKDKFTISRDNAKNTLYLQMNSLRAEDTAVYYCASLYYDYGDAYDYWGQGTLVTVSS
VL: EIVMTQSPATLSVSPGERATLSCKASQSVESNVAWYQQKPGQAPRALIYSASLRFSGIPARFSGSGSGTEFTLTISSLQSEDFAVYYCQQYNNYPLTFGAGTKLELK
notes: Fab heavy chain; as the light chain of m7 (light chain of J22.9-H with D30E); Crystallised in complex with BCMA
On to B4, for which the binding result in assay [2] is recorded as “binds”.

B5: J22.9-ISY, humanized and CDR-optimized IgG (antibody, V domains shown)
VH: EVQLVESGGGLVQPGGSLRLSCAASGFTFSRYWISWVRQAPGKGLVWVGEINPSSSTINYAPSLKDKFTISRDNAKNTLYLQMNSLRAEDTAVYYCASLYYDYGDAYDYWGQGTLVTVSS
VL: EIVMTQSPATLSVSPGERATLSCKASQSVESNVAWYQQKPGQAPRALIYSASLRFSGIPARFSGSGSGTEFTLTISSLQSEDFAVYYCQQYNNYPLTFGAGTKLELK
notes: as the VH of m5 (J22.9-H; human IgG1 heavy chain constant region, as told for J22.9-xi; source: expressed, purified)
Take B5: the binding result (with cynomolgus BCMA; in assay [1]) was “binds” each time.
